Experimental data as given in PMC10981699, “Caldomycin, a new guanidopolyamine produced by a novel agmatine homocoupling enzyme involved in homospermidine biosynthesis” (Scientific Reports, 2024).

B1: CdmS (caldomycin synthase) (Thermus thermophilus HB8; V6M) (protein)
chain: MQKKELLSTPVVPIDIKAFDAGPILEAMGKTAFQARNLHRAAEIYLRMLEDDCAVILTLAGSLVSAGQGLIVHDLIRKGLVDVIVATGANIVDQDFFEALGHRHYQGDPRADDEALRRLWIDRIYDTYIDEEELRHTDYTVAEIADGLEPRPYSSREFIWHMGRYLAERGLGEKSIVRAAYEEGVPIFVPAFSDSSAGFGLVYHQVKRPEAHVTIDSVADFRELTEIKLKAGTTGLVMLGGGVPKNFAQDIVVAAEVLGHRVEMHKYAIQITVADERDGGLSGSTLSEAQSWGKVDARLSQMVFAEATLAFPLLASYVWHRAPARAKRRYAELFREKAPA
notes: full-length gene in pET21b (NdeI/EcoRI), E. coli BL21(DE3) pLysS; no tag stated; heat treatment and Butyl column; 38 kDa on SDS-PAGE
B2: TtSpeBap (aminopropylagmatine ureohydrolase) (Thermus thermophilus HB8) (protein)
chain: MRLVFGEKDTPYEEARVVVLPVPYDLSLSFLPGARRGPEAILLASRELEPFLLELGAAPEEVGIHAAEPVPWVAGMAEESHRLIREEALRHLRAGKWVVALGGDHSVTHPLVQAHREALGDFSLLHVDAHADLYPEWQGSVYSHASPFYRLLTEGFPLVQVGIRAMDRDSLRLARKKGVALFPAHRIHREGLPLDEILRALGKRVYISLDFDALDPSLMPSVGTPLPGGLSYRQVVDLLEAVFREKEVVGMDFVELSPNGQFHAEMTAAQLVYHAIGLKGLQAGWLSREVDHI

Key:
[1] = substrate: N=C(N)NCCCCN; assay: homospermidine formation by HPLC, coupled with TtSpeBap; type: biochemical, Thermus thermophilus; details: 50 mM Tris-HCl pH 8.5, 1 mM NAD+, 10 µM MnCl2, 65 °C, TtSpeBap as coupling enzyme, agmatine is both donor and acceptor
[2] = substrate: N=C(N)NCCCCNCCCCNC(=N)N; assay: urea release, Quantichrome urea assay; type: biochemical, Thermus thermophilus; details: assay as in ref. 26
Excerpt: urea release, Quantichrome urea assay on TtSpeBap (aminopropylagmatine ureohydrolase)

Protein | Km [1] | Km [2] | Vmax [2] | kcat [2] | kcat/Km [2]
B1 | 95 ± 6 µM | – | – | – | –
B2 | – | 3840 ± 840 µM | 2920 µmol/min/mg | 1580 ± 230 s⁻¹ | 419000 ± 32000 M⁻¹ s⁻¹
